Measured values reported in US20220362357A1, “Synergistic Combinations of Amino Acid Depletion Agent Sensitizers (AADAS) and Amino Acid Depletion Agents (AADA), and Therapeutic Methods of Use Thereof” (STICHTING RADBOUD UNIVERSITAIR MEDISCH CENTRUM, priority 2018, published 2022).

How the values were obtained:
Experiment in all cases: PDX ALL cells co-cultured on hTERT MSCs, ASNase x ibrutinib dilution matrix, microscopy
Assay type in all cases: cell-based, human
PDX m3810 = details: ibrutinib B0=0 to B9=100
Description: (§1) After 2-4 months these mice developed full blown leukemia with an immunophenotype and genetic composition that in the large majority of cases is identical to the original material at the time of injection.
(§2) Briefly, hTERT immortalized MSCs were seeded in either a 384 wells format (microscopy) or a 96 wells format (7AAD staining) and allowed to settle for 24 hours prior to the addition of ALL xenografts. […] After 3 and 7 days of incubation, cell death was analyzed using microscopy using live cells staining or flowcytometry using 7AAD to discriminate between live or dead cells.

PDX m1095 = details: m1095 (3 d), ibrutinib B0=0 to B9=100
Description: as §1, §2

PDX m4206 = details: ibrutinib B0=0 to B9=100
Description: as §1, §2

PDX m1600 = details: m1600 (3 d), ibrutinib B0=0 to B9=100
Description: as §1, §2

PDX m1338 = details: m1338 (7 d), ibrutinib B0=0 to B9=100
Description: as §1, §2

B1: ASNase: native E. coli ASNase (NCBI WP_000394140.1), used in the in vitro studies (protein, UniProt P00805 23-348, looked up)
L-asparaginase 2: LPNITILATGGTIAGGGDSATKSNYTVGKVGVENLVNAVPQLKDIANVKGEQVVNIGSQDMNDNVWLTLAKKINTDCDKTDGFVITHGTDTMEETAYFLDLTVKCDKPVVMVGAMRPSTSMSADGPFNLYNAVVTAADKASANRGVLVVMNDTVLDGRDVTKTNTTDVATFKSVNYGPLGYIHNGKIDYQRTPARKHTSDTPFDVSKLNELPKVGIVYNYANASDLPAKALVDAGYDGIVSAGVGNGNLYKSVFDTLATAAKTGTAVVRSSRVPTGATTQDAEVDDAKYGFVASGTLNPQKARVLLQLALTQTKDPQQIQQIFNQY
Question: What does the source list for B1?
Answer: live cells by automated microscopy (table names no quantity) (PDX m3810; m3810 (3 d), ASNase A1=0.01): 1232; live cells by automated microscopy (table names no quantity) (PDX m3810; m3810 (3 d), ASNase A2=0.03): 2209; live cells by automated microscopy (table names no quantity) (PDX m3810; m3810 (3 d), ASNase A3=0.1): 1405; live cells by automated microscopy (table names no quantity) (PDX m3810; m3810 (3 d), ASNase A4=0.3): 1982; live cells by automated microscopy (table names no quantity) (PDX m3810; m3810 (3 d), ASNase A5=1): 1472; live cells by automated microscopy (table names no quantity) (PDX m3810; m3810 (3 d), ASNase A6=3): 1497; live cells by automated microscopy (table names no quantity) (PDX m3810; m3810 (3 d), ASNase A7=10): 1054; live cells by automated microscopy (table names no quantity) (PDX m3810; m3810 (3 d), ASNase A8=32): 268; live cells by automated microscopy (table names no quantity) (PDX m3810; m3810 (3 d), ASNase A9 (A=100)): 8; live cells by automated microscopy (table names no quantity) (PDX m3810; m3810 (7 d), ASNase A1=0.01): 1776; live cells by automated microscopy (table names no quantity) (PDX m3810; m3810 (7 d), ASNase A2=0.03): 1752; live cells by automated microscopy (table names no quantity) (PDX m3810; m3810 (7 d), ASNase A3=0.1): 1563; live cells by automated microscopy (table names no quantity) (PDX m3810; m3810 (7 d), ASNase A4=0.3): 1519; live cells by automated microscopy (table names no quantity) (PDX m3810; m3810 (7 d), ASNase A5=1): 1136; live cells by automated microscopy (table names no quantity) (PDX m3810; m3810 (7 d), ASNase A6=3): 1251; live cells by automated microscopy (table names no quantity) (PDX m3810; m3810 (7 d), ASNase A7=10): 686; live cells by automated microscopy (table names no quantity) (PDX m3810; m3810 (7 d), ASNase A8=32): 87; live cells by automated microscopy (table names no quantity) (PDX m3810; m3810 (7 d), ASNase A9 (A=100)): 4; live cells by automated microscopy (table names no quantity) (PDX m1095; ASNase A1=0.01): 2935; live cells by automated microscopy (table names no quantity) (PDX m1095; ASNase A2=0.03): 2914; live cells by automated microscopy (table names no quantity) (PDX m1095; ASNase A3=0.1): 3089; live cells by automated microscopy (table names no quantity) (PDX m1095; ASNase A4=0.3): 3205; live cells by automated microscopy (table names no quantity) (PDX m1095; ASNase A5=1): 2579; live cells by automated microscopy (table names no quantity) (PDX m1095; ASNase A6=3): 549; live cells by automated microscopy (table names no quantity) (PDX m1095; ASNase A7=10): 2033; live cells by automated microscopy (table names no quantity) (PDX m1095; ASNase A8=32): 238; live cells by automated microscopy (table names no quantity) (PDX m1095; ASNase A9 (A=100)): 30; live cells by automated microscopy (table names no quantity) (PDX m4206; m4206 (3 d), ASNase A1=0.01): 3112; live cells by automated microscopy (table names no quantity) (PDX m4206; m4206 (3 d), ASNase A2=0.03): 2484; live cells by automated microscopy (table names no quantity) (PDX m4206; m4206 (3 d), ASNase A3=0.1): 3106; live cells by automated microscopy (table names no quantity) (PDX m4206; m4206 (3 d), ASNase A4=0.3): 2323; live cells by automated microscopy (table names no quantity) (PDX m4206; m4206 (3 d), ASNase A5=1): 2141; live cells by automated microscopy (table names no quantity) (PDX m4206; m4206 (3 d), ASNase A6=3): 2304; live cells by automated microscopy (table names no quantity) (PDX m4206; m4206 (3 d), ASNase A7=10): 1979; live cells by automated microscopy (table names no quantity) (PDX m4206; m4206 (3 d), ASNase A8=32): 301; live cells by automated microscopy (table names no quantity) (PDX m4206; m4206 (3 d), ASNase A9 (A=100)): 69; live cells by automated microscopy (table names no quantity) (PDX m4206; m4206 (7 d), ASNase A1=0.01): 56; live cells by automated microscopy (table names no quantity) (PDX m4206; m4206 (7 d), ASNase A2=0.03): 52; live cells by automated microscopy (table names no quantity) (PDX m4206; m4206 (7 d), ASNase A3=0.1): 86; live cells by automated microscopy (table names no quantity) (PDX m4206; m4206 (7 d), ASNase A4=0.3): 37; live cells by automated microscopy (table names no quantity) (PDX m4206; m4206 (7 d), ASNase A5=1): 83; live cells by automated microscopy (table names no quantity) (PDX m4206; m4206 (7 d), ASNase A6=3): 87; live cells by automated microscopy (table names no quantity) (PDX m4206; m4206 (7 d), ASNase A7=10): 68; live cells by automated microscopy (table names no quantity) (PDX m4206; m4206 (7 d), ASNase A8=32): 24; live cells by automated microscopy (table names no quantity) (PDX m4206; m4206 (7 d), ASNase A9 (A=100)): 35; live cells by automated microscopy (table names no quantity) (PDX m1600; ASNase A1=0.01): 4146; live cells by automated microscopy (table names no quantity) (PDX m1600; ASNase A2=0.03): 4603; live cells by automated microscopy (table names no quantity) (PDX m1600; ASNase A3=0.1): 3714; live cells by automated microscopy (table names no quantity) (PDX m1600; ASNase A4=0.3): 3134; live cells by automated microscopy (table names no quantity) (PDX m1600; ASNase A5=1): 4045; live cells by automated microscopy (table names no quantity) (PDX m1600; ASNase A6=3): 4366; live cells by automated microscopy (table names no quantity) (PDX m1600; ASNase A7=10): 3730; live cells by automated microscopy (table names no quantity) (PDX m1600; ASNase A8=32): 487; live cells by automated microscopy (table names no quantity) (PDX m1600; ASNase A9 (A=100)): 4; live cells by automated microscopy (table names no quantity) (PDX m1338; ASNase A1=0.01): 2207; live cells by automated microscopy (table names no quantity) (PDX m1338; ASNase A2=0.03): 3174; live cells by automated microscopy (table names no quantity) (PDX m1338; ASNase A3=0.1): 2916; live cells by automated microscopy (table names no quantity) (PDX m1338; ASNase A4=0.3): 2372
